Consider one molecule from US20060205037A1 (published 2006).

The target in the assay is T1, rat GLP-1 receptor (CHO cells transfected with the rat GLP-1 receptor) (rat, UniProt P32301 22-463).
T1 sequence (looked up): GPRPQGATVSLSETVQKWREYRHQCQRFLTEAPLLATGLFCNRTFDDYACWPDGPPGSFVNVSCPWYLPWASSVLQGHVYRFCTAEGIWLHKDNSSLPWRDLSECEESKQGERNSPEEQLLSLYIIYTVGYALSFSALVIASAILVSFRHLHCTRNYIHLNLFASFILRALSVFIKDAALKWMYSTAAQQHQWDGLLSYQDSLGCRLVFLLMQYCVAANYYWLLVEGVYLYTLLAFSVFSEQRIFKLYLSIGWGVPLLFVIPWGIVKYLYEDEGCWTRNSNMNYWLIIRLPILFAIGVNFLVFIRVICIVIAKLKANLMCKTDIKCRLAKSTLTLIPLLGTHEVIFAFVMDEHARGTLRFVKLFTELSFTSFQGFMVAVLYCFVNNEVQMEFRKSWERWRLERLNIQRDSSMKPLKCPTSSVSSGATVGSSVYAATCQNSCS
Nature of the assay: cell-based or functional assay.

B1: pREX0558: GLP-1 (7-37;A8G;G22E;K34A) fused to the N-terminus of transferrin with PEAPTD and IgG hinge linkers (other)
chain: HGEGTFTSDVSSYLEEQAAKEFIAWLVAGRGPEAPTDVEPKSSDKTHTSPPSPAPELLGGPSVPDKTVRWCAVSEHEATKCQSFRDHMKSVIPSDGPSVACVKKASYLDCIRAIAANEADAVTLDAGLVYDAYLAPNNLKPVVAEFYGSKEDPQTFYYAVAVVKKDSGFQMNQLRGKKSCHTGLGRSAGWNIPIGLLYCDLPEPRKPLEKAVANFFSGSCAPCADGTDFPQLCQLCPGCGCSTLNQYFGYSGAFKCLKDGAGDVAFVKHSTIFENLANKADRDQYELLCLDNTRKPVDEYKDCHLAQVPSHTVVARSMGGKEDLIWELLNQAQEHFGKDKSKEFQLFSSPHGKDLLFKDSAHGFLKVPPRMDAKMYLGYEYVTAIRNLREGTCPEAPTDECKPVKWCALSHHERLKCDEWSVNSVGKIECVSAETTEDCIAKIMNGEADAMSLDGGFVYIAGKCGLVPVLAENYNKADNCEDTPEAGYFAVAVVKKSASDLTWDNLKGKKSCHTAVGRTAGWNIPMGLLYNKINHCRFDEFFSEGCAPGSKKDSSLCKLCMGSGLNLCEPNNKEGYYGYTGAFRCLVEKGDVAFVKHQTVPQNTGGKNPDPWAKNLNEKDYELLCLDGTRKPVEEYANCHLARAPNHAVVTRKDKEACVHKILRQQQHLFGSNVADCSGNFCLFRSETKDLLFRDDTVCLAKLHDRNTYEKYLGEEYVKAVGNLRKCSTSSLLEACTFRRP
B1: the “cAMP assay EC50 (fermentation F0191)” value amounted to 5.9 nM.
